In patent US20160280750A1 (NEWSOUTH INNOVATIONS, published 2016):

T1: HLA-B*2705 (human, UniProt P01889 25-302 at identity 0.93))
T1 construct: MHC class I molecule assembled with candidate peptides in the REVEAL assay (ProImmune)
T1 MHC heavy: not shown

T2: HLA-B*2705 (human), P01889
T2 chain: not shown


Molecular target: T1, HLA-B*2705
Test: REVEAL MHC-peptide binding assay, incorporation into HLA-B*2705

**Q.** How did the “% Positive Control (REVEAL binding score)” value turn out when LQDFFSSLI [Peptide I.D. 34 LQDFFSSLI] was run?
**A.** 0.11 % of positive control

**Q.** Which “% Positive Control (REVEAL binding score)” value does the source give for LEDIRLDGN [Peptide I.D. 13 LEDIRLDGN] here?
**A.** 2.17 % of positive control

**Q.** With FNALQYLRL [Peptide I.D. 20 FNALQYLRL] as the binder, how does the “% Positive Control (REVEAL binding score)” value read?
**A.** 1.81 % of positive control

**Q.** With ALQYLRLSH [Peptide I.D. 22 ALQYLRLSH] as the binder, how does the “% Positive Control (REVEAL binding score)” value read?
**A.** 0.13 % of positive control

**Q.** How did the “% Positive Control (REVEAL binding score)” value turn out when DLQDFFSSL [Peptide I.D. 33 DLQDFFSSL] was run?
**A.** 0.35 % of positive control

**Q.** For ARGQPGVMG [Peptide I.D. 37 ARGQPGVMG], which “% Positive Control (REVEAL binding score)” value is on record?
**A.** 0 % of positive control

**Q.** RFNALQYLR [Peptide I.D. 19 RFNALQYLR] was tested. Which “% Positive Control (REVEAL binding score)” value did it give?
**A.** 1.2 % of positive control

**Q.** Which “% Positive Control (REVEAL binding score)” value does the source give for YFKRFNALQ [Peptide I.D. 16 YFKRFNALQ] here?
**A.** 0.47 % of positive control

**Q.** With TRRQLEDIR [Peptide I.D. 9 TRRQLEDIR] as the binder, how does the “% Positive Control (REVEAL binding score)” value read?
**A.** 0.02 % of positive control

**Q.** KHTRRQLED [Peptide I.D. 7 KHTRRQLED] was tested. Which “% Positive Control (REVEAL binding score)” value did it give?
**A.** 0.04 % of positive control

**Q.** DEYFKRFNA [Peptide I.D. 14 DEYFKRFNA] was tested. Which “% Positive Control (REVEAL binding score)” value did it give?
**A.** 0.06 % of positive control

**Q.** For NLRSIDLQD [Peptide I.D. 28 NLRSIDLQD], which “% Positive Control (REVEAL binding score)” value is on record?
**A.** 0.17 % of positive control

**Q.** How did the “% Positive Control (REVEAL binding score)” value turn out when FKRFNALQY [Peptide I.D. 17 FKRFNALQY] was run?
**A.** 0.15 % of positive control

**Q.** LRSIDLQDF [Peptide I.D. 29 LRSIDLQDF] was tested. Which “% Positive Control (REVEAL binding score)” value did it give?
**A.** 0.08 % of positive control

**Q.** How did the “% Positive Control (REVEAL binding score)” value turn out when RRRWRRLTV [Peptide I.D. 36 RRRWRRLTV] was run?
**A.** 44 % of positive control

**Q.** LNLRSIDLQ [Peptide I.D. 27 LNLRSIDLQ] was tested. Which “% Positive Control (REVEAL binding score)” value did it give?
**A.** 0.11 % of positive control

**Q.** How did the “% Positive Control (REVEAL binding score)” value turn out when EYFKRFNAL [Peptide I.D. 15 EYFKRFNAL] was run?
**A.** 0.48 % of positive control

**Q.** How did the “% Positive Control (REVEAL binding score)” value turn out when NALQYLRLS [Peptide I.D. 21 NALQYLRLS] was run?
**A.** 0.11 % of positive control

**Q.** Which “% Positive Control (REVEAL binding score)” value does the source give for SIDLQDFFS [Peptide I.D. 31 SIDLQDFFS] here?
**A.** 0.26 % of positive control

**Q.** QYLRLSHNE [Peptide I.D. 24 QYLRLSHNE] was tested. Which “% Positive Control (REVEAL binding score)” value did it give?
**A.** 0.5 % of positive control

**Q.** How did the “% Positive Control (REVEAL binding score)” value turn out when RQLEDIRLD [Peptide I.D. 11 RQLEDIRLD] was run?
**A.** 0.5 % of positive control

**Q.** RSIDLQDFF [Peptide I.D. 30 RSIDLQDFF] was tested. Which “% Positive Control (REVEAL binding score)” value did it give?
**A.** 0.08 % of positive control

**Q.** For HKHTRRQLE [Peptide I.D. 6 HKHTRRQLE], which “% Positive Control (REVEAL binding score)” value is on record?
**A.** 0 % of positive control

**Q.** For HTRRQLEDI [Peptide I.D. 8 HTRRQLEDI], which “% Positive Control (REVEAL binding score)” value is on record?
**A.** 0.04 % of positive control

**Q.** How did the “% Positive Control (REVEAL binding score)” value turn out when IDLQDFFSS [Peptide I.D. 32 IDLQDFFSS] was run?
**A.** 0.13 % of positive control

**Q.** How did the “% Positive Control (REVEAL binding score)” value turn out when QLEDIRLDG (Opticin nonamer) [Peptide I.D. 12 QLEDIRLDG] was run?
**A.** 0 % of positive control

Molecular target: T2, HLA-B*2705 (human), P01889
Test: as above

**Q.** DPCTTWCDA (modifications not checked) [Peptide I.D. 35 …] was tested. Which % Positive Control (REVEAL binding score) (% of positive control) did it give?
**A.** 2.18
